US20100260765A1 (AstraZeneca / MedImmune, published 2010)
One block for each binder: values may come before it.

Assays:
human KDR on cells = human KDR on cells (human, UniProt P35968 20-1356); experiment: cell-based or functional assay
[1] = biological target: T1, KDR (antigen used as analyte in the Biacore assay) (UniProt P35968 20-764, limits assumed); experiment: SPR, Biacore 2000; antibody amine-coupled on CM4 chip, KDR as analyte; global 1:1 fit; 23 C
T1 construct: also called the antigen KDR
Description: Each purified anti-KDR antibody was immobilized on a CM4 sensor chip within a Biacore 2000 using standard amine coupling. Immobilization levels were kept between 250 and 350 RU. The concentration of KDR was determined by UV-VIS spectroscopy using a molar absorptivity at 280 nm of 110, 440 M⁻¹ cm⁻¹, which was calculated from the sequence of the protein using a method developed by Pace et al. (G. R. Grimsley and C. N. Pace (2003) in Current Protocols in Protein Science (John Wiley & Sons, Inc.), 3.1.1-3.1.9). The antigen KDR was diluted to a starting concentration of 52 nM and tested in a 3-fold dilution series in triplicate. The running buffer contained HBS-P with 0.1 mg/ml BSA and binding responses were collected at 23 degrees C. […] The response data were globally fit with a simple 1:1 interaction model. The number shown in parentheses is the standard error in the last significant figure.

T1 sequence (P35968 20-764 limits assumed): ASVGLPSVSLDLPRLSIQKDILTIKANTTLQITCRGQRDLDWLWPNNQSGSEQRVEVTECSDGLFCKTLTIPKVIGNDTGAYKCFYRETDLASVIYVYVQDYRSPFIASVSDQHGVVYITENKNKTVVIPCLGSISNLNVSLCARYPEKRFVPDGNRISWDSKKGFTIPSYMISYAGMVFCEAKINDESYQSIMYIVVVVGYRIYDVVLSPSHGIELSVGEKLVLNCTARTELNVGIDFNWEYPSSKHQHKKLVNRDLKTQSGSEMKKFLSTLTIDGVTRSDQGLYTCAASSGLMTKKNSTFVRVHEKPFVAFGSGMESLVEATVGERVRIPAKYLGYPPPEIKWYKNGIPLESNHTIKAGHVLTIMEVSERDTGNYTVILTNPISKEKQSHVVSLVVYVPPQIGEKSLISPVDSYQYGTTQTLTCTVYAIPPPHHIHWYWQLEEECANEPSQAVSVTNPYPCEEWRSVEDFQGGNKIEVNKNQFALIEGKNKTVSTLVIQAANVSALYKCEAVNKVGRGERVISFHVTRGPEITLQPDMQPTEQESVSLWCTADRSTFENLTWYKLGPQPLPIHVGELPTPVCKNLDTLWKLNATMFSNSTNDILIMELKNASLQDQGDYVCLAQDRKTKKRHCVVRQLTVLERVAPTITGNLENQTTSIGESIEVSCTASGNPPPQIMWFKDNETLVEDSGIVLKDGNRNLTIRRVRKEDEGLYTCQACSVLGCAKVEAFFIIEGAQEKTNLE
Chain of human KDR on cells (P35968 20-1356): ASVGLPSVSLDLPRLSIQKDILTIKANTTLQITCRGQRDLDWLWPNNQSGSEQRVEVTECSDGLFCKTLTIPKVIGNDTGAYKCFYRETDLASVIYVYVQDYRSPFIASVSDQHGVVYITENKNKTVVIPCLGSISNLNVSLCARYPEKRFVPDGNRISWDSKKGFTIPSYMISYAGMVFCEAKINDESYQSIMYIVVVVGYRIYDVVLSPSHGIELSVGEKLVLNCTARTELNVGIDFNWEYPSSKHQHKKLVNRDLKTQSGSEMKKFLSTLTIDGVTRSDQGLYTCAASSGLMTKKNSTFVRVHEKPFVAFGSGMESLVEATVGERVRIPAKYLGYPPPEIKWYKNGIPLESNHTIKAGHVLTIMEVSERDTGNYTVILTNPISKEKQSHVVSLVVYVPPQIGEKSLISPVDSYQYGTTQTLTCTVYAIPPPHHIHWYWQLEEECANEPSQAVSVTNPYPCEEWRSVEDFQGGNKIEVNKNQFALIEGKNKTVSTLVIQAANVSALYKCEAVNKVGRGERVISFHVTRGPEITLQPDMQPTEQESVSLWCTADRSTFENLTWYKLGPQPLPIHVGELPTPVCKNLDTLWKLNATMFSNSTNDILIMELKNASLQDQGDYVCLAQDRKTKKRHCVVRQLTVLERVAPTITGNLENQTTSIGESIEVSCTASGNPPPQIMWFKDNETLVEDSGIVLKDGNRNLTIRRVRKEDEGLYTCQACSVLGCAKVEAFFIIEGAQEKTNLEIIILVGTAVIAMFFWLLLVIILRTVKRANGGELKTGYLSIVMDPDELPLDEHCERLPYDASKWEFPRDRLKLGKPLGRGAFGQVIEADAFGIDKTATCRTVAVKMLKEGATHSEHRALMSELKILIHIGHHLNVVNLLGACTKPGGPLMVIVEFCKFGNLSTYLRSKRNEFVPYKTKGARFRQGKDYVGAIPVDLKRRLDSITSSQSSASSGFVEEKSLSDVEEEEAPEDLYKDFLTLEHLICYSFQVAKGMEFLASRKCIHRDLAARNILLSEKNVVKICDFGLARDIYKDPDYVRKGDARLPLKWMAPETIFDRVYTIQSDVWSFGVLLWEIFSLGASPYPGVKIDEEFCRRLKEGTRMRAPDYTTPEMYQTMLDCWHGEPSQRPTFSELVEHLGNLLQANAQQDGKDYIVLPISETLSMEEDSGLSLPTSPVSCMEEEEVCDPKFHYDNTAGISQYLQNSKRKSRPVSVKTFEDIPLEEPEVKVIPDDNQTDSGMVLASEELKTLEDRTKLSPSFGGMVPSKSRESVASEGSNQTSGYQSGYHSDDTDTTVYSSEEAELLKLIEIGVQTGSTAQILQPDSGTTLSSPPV

- % Inhibition (Average) of VEGF-C-mediated KDR activity, antibody 1 nM (human KDR on cells): 30%
- % Inhibition (Average) of VEGF-C-mediated KDR activity, antibody 10 nM (human KDR on cells): 62%
- % Inhibition (Average) of VEGF-C-mediated KDR activity, antibody 100 nM (human KDR on cells): 71%
- % Inhibition (N = 1) of VEGF-C-mediated KDR activity, antibody 1 nM (human KDR on cells): 26%
- % Inhibition (N = 1) of VEGF-C-mediated KDR activity, antibody 10 nM (human KDR on cells): 61%
- % Inhibition (N = 1) of VEGF-C-mediated KDR activity, antibody 100 nM (human KDR on cells): 67%
- % Inhibition (N = 2) of VEGF-C-mediated KDR activity, antibody 1 nM (human KDR on cells): 34%
- % Inhibition (N = 2) of VEGF-C-mediated KDR activity, antibody 10 nM (human KDR on cells): 62%
- % Inhibition (N = 2) of VEGF-C-mediated KDR activity, antibody 100 nM (human KDR on cells): 75%
- Kd [1]: 1.09 nM
- koff [1]: 0.000191 s⁻¹
- kon [1]: 175000 M⁻¹ s⁻¹
B1: 24B3 (antibody, V domains shown)
VH: EVQLVESGGGLVKPGGSLRLSCAASGFTFSTYSMNWVRQAPGKGLEWVSFISGRSSYIYYADSVKGRFTISRDNAKNSLYLQMNSLRAEDTAVYYCSKDDWFEELWGQGTLVTVSS
VL: DIQMTQSPSSLSASVGDRVTITCRASQGIRSDLGWYQQKPGKAPKRLIYATSSLQSGVPSRFSGSGSGTEFTLTISSLQPEDFATYYCLQHNRYPWTFGQGTKVEIK
notes: Purified fully human monoclonal antibody from XenoMouse hybridoma (IgG2 or IgG4 strains); also called MAb 24B3

- % Inhibition (Average) of VEGF-C-mediated KDR activity, antibody 1 nM (human KDR on cells): 66%
- % Inhibition (Average) of VEGF-C-mediated KDR activity, antibody 10 nM (human KDR on cells): 88%
- % Inhibition (Average) of VEGF-C-mediated KDR activity, antibody 100 nM (human KDR on cells): 85%
- % Inhibition (N = 1) of VEGF-C-mediated KDR activity, antibody 1 nM (human KDR on cells): 71%
- % Inhibition (N = 1) of VEGF-C-mediated KDR activity, antibody 10 nM (human KDR on cells): 87%
- % Inhibition (N = 1) of VEGF-C-mediated KDR activity, antibody 100 nM (human KDR on cells): 84%
- % Inhibition (N = 2) of VEGF-C-mediated KDR activity, antibody 1 nM (human KDR on cells): 61%
- % Inhibition (N = 2) of VEGF-C-mediated KDR activity, antibody 10 nM (human KDR on cells): 89%
- % Inhibition (N = 2) of VEGF-C-mediated KDR activity, antibody 100 nM (human KDR on cells): 86%
- Kd [1]: 0.91 nM
- koff [1]: 9.3e-05 s⁻¹
- kon [1]: 102000 M⁻¹ s⁻¹
B2: 33C3 (antibody, V domains shown)
VH: QVQLVESGGGLVKPGESLRLSCAASGFTFSDYYMSWIRQAPGKGLEWVSYISHGGSTIYYADSVKGRFTISRDNAKNSLYLQMNSLRVEDTAVYFCARDDFWSGYYFNWFDPWGQGALVTVSS
VL: DIQMTQYPLSLSASVGDRVTITCRASQSISSFLNWYHQKPGKAPKLLIYGTSSLQSGVPSRFSGSGSGTDFTLTISSLQPEDFATYYCQQTYSIPLTFGGGTNVEIK
notes: Purified fully human monoclonal antibody from XenoMouse hybridoma (IgG2 or IgG4 strains); also called MAb 33C3
